Measured values from the supplement of paper PMC9170038.

Test system: MS2 coat protein
Experiment: apparent KD of MS2 coat protein; designed switch direction (-1 OFF switch, 1 ON switch): -1; higher = weaker reporter binding
In short: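 The reported apparent KD is a per-design median over clusters, from curve fits of normalised cluster fluorescence. Protein titrations used SNAP-549-labelled MS2 coat protein, doubled from 0.7 or 1.5 nM to 3 µM, in Tris-HCl pH 7.5 buffer with KCl, MgCl2, BSA, DTT, tRNA and Tween-20, with no input, 200 uM small-molecule ligand, or an oligonucleotide input. The RNA switches were transcribed on Illumina chips by stalled E. coli RNA polymerase.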

[1] = Eterna round: R95, input ligand: FMN 200 uM
[2] = Eterna round: R95, input ligand: microRNA oligo, concentration not stated
[3] = Eterna round: R95, input ligand: none
[4] = input ligand: microRNA oligo, concentration not stated

GAGAAGGUAGGAUAUACGAAGAAAGAGGGUAGUAAUAAUACACAUGAGGAUCACCCAUGUAGAAGGACCAAGAG [Mat - Exclusion 2 - Mod of my Tesla design - D45] (puzzle: Exclusion 2)
apparent KD of MS2 coat protein [1]: 35.9 nM
apparent KD of MS2 coat protein [2]: 24.7 nM
apparent KD of MS2 coat protein [3]: 21.7 nM

AGGAUCCUAGGAUAUGCUGGGUAUCGCUGUCGGAGGGACAGACAUGAGGAUCACCCAUGUAGAAGGAGGCGCUC [Eternabot (L1) Solution 5] (Eterna round: R97, puzzle: Exclusion 2)
apparent KD of MS2 coat protein (input ligand: FMN 200 uM): 3680 nM
apparent KD of MS2 coat protein (input ligand: none): 667 nM

AAAUAAAAACAAGCAAAACACAUGAGGAUCACCCAUGUAAAGGGUGAAGUUCGCACCCAAAAAUAAAAUAAAUAAAA [another turnoff var 1st] (Eterna round: R96, puzzle: Sensor v2, turn-off variant)
apparent KD of MS2 coat protein (input ligand: FMN 200 uM): 26.7 nM
apparent KD of MS2 coat protein [4]: 29.8 nM
apparent KD of MS2 coat protein (input ligand: none): 24.9 nM

UUUGUUUAUGUAGGAUAUGCCUGGCGUGCCUUUGCAGAAGGACAUGAGGAUCACCCAUGUAACAUGAGGCUCACCCAUGUCGCU [salish99_ExNG1_r04_111] (Eterna round: R96, puzzle: Exclusion NG 1)
apparent KD of MS2 coat protein (input ligand: FMN 200 uM): 240 nM
apparent KD of MS2 coat protein [4]: 180 nM
apparent KD of MS2 coat protein (input ligand: none): 292 nM

UUCGUGCUGCUUUGCUGUACGAGUACAUGAGGAUCACCCAUGUAGGAUAUGGUUCGCUUUGCGUGCUAGAAGGAUAUGUGUUGC [salish99_ExNG3_r04_507] (Eterna round: R96, puzzle: Exclusion NG 3)
apparent KD of MS2 coat protein (input ligand: FMN 200 uM): 26.2 nM
apparent KD of MS2 coat protein [4]: 17.8 nM
apparent KD of MS2 coat protein (input ligand: none): 26 nM

AAUCCUGAAGUUAGGAUAUGAAGUAUCACUGCACUUCAGAAGGGACUUGAGGAUCACCCAAGUAGCCGUGAGGG [salish99_bmod_ex4_r4_001] (Eterna round: R97, puzzle: Brourd's mod of Exclusion 4)
apparent KD of MS2 coat protein (input ligand: FMN 200 uM): 161 nM
apparent KD of MS2 coat protein (input ligand: none): 47.5 nM

CAUGAUCUUCGGAUCAUGUACAUGAGGAUCACCCAUGUGACGAGUUGAUCCUCAUACAAGCUUUUUGCUCGUCUUAU [Sensor v3 - Turn-off variant 1 - 15] (puzzle: Sensor v3, turn-off variant 1)
apparent KD of MS2 coat protein [1]: 26.8 nM
apparent KD of MS2 coat protein [2]: 16.7 nM
apparent KD of MS2 coat protein [3]: 24.4 nM

CUUGUUUAUGUGAGGAUAUACUGUUAGUAUAGUUUGUAGAAGGUACAUGAGGAUCACCCAUGUUUAUUACUCUU [JR_BME4_Sub046] (puzzle: Brourd's mod of Exclusion 4)
apparent KD of MS2 coat protein [2]: 11.9 nM

AUCAUGUUAGGAUAUUACGACGCAGCGGGUAGCCCGUAAAGUAAGAAGGAACAUGAGGAUCACCCAUGUUCAAA [EX4 B.22] (Eterna round: R97, puzzle: Exclusion 4)
apparent KD of MS2 coat protein (input ligand: FMN 200 uM): 32.8 nM
apparent KD of MS2 coat protein (input ligand: none): 19.6 nM

CAAUACAAGCGAAGAUCCUACAUGAGGAUCACCCAUGUGCUCGUCUUAAAAGGUACUGUGACGAAAGUCACGGUACC [Eli 87 + Mat D67 4] (Eterna round: R97, puzzle: Sensor, turn-off variant 1)
apparent KD of MS2 coat protein (input ligand: FMN 200 uM): 282 nM
apparent KD of MS2 coat protein (input ligand: none): 296 nM

CGUGCGUAUGUGAGGAUAUGCUGGUCCUUGGAUCGGCAGAAGGCACAUGAGGAUCACCCAUGUGGUGUCGUACC [salish99_Bmod_ex4_074] (puzzle: Brourd's mod of Exclusion 4)
apparent KD of MS2 coat protein [2]: 123 nM

GCACAGACAGGAUAUACAUGAGGAUCACCCAUGUGACCCUUAUAGUACUCGCGUACAAGUAGAAGGGUCUGUGC [Omei Ex3 Model Bachelor's Dilema v32] (Eterna round: R97, puzzle: Exclusion 3)
apparent KD of MS2 coat protein (input ligand: FMN 200 uM): 320 nM
apparent KD of MS2 coat protein (input ligand: none): 832 nM

AUAUUUAAUGAGGAUAUCGUUGUAGGUAUAUAGCGAGAAGGCAUUACAUGAGGAUCACCCAUGUAGUGUGGGUU [JR_Ex6_Sub021] (Eterna round: R97, puzzle: Exclusion 6)
apparent KD of MS2 coat protein (input ligand: FMN 200 uM): 78.7 nM
apparent KD of MS2 coat protein (input ligand: none): 23.7 nM

UAGUGGCAAGGAUAUACAGAGGAGAGGAUUGCAAGAGGUGGACAUGAGGAUCACCCAUGUAGAAGGUGCAGAGA [JR_Exclu2_Sub022] (puzzle: Exclusion 2)
apparent KD of MS2 coat protein [2]: 252 nM

UCACGUACAGGAUAUACAUGAGGAUCACCCAUGUGCUCGAAGGCACGCCCGAGAUUCUGUAGAAGGGUAUAGCA [Eternabot (L1) Solution 50] (Eterna round: R97, puzzle: Exclusion 3)
apparent KD of MS2 coat protein (input ligand: FMN 200 uM): 38.4 nM
apparent KD of MS2 coat protein (input ligand: none): 32.5 nM
